According to patent US6416738B1, “Pretargeting methods and compounds” (NeoRx Corporation, priority 1973, dated 2002):

Molecular target: T1, NR-LU-10 antigen (Homo sapiens, UniProt P16422)
T1 construct: Positive NR-LU-10 tissue reactivity indicates NR-LU-10 antigen expression by such tissues; from tissue; host or cells: carcinoma and normal tissue specimens
T1 sequence (P16422 24-314): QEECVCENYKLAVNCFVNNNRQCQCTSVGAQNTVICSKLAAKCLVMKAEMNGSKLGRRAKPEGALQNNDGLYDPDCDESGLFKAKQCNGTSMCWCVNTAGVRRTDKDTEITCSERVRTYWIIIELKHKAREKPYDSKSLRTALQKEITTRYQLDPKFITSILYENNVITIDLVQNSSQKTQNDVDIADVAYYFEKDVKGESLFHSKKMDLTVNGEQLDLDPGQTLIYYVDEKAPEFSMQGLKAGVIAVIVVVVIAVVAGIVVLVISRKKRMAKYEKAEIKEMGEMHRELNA
Assay: NR-LU-10 reactivity with normal tissues (Table B)
Format: binding
Description: Radioimmunoassays, immunoprecipitation and Fluorescence-Activated Cell Sorter (FACS) analysis were used to obtain reactivity profiles of NR-LU-10. The NR-LU-10 target antigen was present on either fixed cultured cells or in detergent extracts of various types of cancer cells. For example, the NR-LU-10 antigen is found in small cell lung, non-small cell lung, colon, breast, renal, ovarian, pancreatic, and other carcinoma tissues. Tumor reactivity of the NR-LU-10 antibody is set forth in Table A, while NR-LU-10 reactivity with normal tissues is set forth in Table B. The values in Table B are obtained as described below. Positive NR-LU-10 tissue reactivity indicates NR-LU-10 antigen expression by such tissues.
The tissue specimens were scored in accordance with three reactivity parameters: (1) the intensity of the reaction; (2) the uniformity of the reaction within the cell type; and (3) the percentage of cells reactive with the antibody. These three values are combined into a single weighted comparative value between 0 and 500, with 500 being the most intense reactivity. This comparative value facilitates comparison of different tissues. Table B includes a summary reactivity value, the number of tissue samples examined and the number of samples that reacted positively with NR-LU-10.

[1] = Adenoid: Lymphoid Follicle-Central
[2] = Adenoid: Lymphoid Follicle-Peripheral
[3] = Adrenal: Zona Fasciculata Cortex
[4] = Adrenal: Zona Glomerulosa Cortex
[5] = Adrenal: Zona Reticularis Cortex
[6] = Brain-Cerebellum: Axons, Myelinated
[7] = Brain-Cerebellum: Purkenje's Cells
[8] = Brain-Cerebrum: Axons, Myelinated
[9] = Brain-Midbrain: Axons, Myelinated
[10] = Gall Bladder: Mucosal Epithelium
[11] = Kidney: Distal Convoluted Tubules
[12] = Kidney: Proximal Convoluted Tubules
[13] = Liver: Central Lobular Hepatocyte
[14] = Lymph Node: Lymphoid Follicle-Central
[15] = Lymph Node: Lymphoid Follicle-Peripheral
[16] = Mammary Gland: Alveolar Epithelium

B1: NR-LU-10: 150 kilodalton IgG2b monoclonal antibody recognizing an approximately 40 kilodalton glycoprotein antigen expressed on most carcinomas (antibody, V domains shown)
VH: EVQLQQSGAELVKPGASVRLSCTASGFNIKDTYMHWVIERPEQGLEWIGRIDPANGNTKCDPKFQGKATITADTSSNTAYLQLSSLTSEDTAVYYCSREVLTGTWSLDYWGQGTSVTVSS
VL: DIQMIQSPSSMFASLGDRVSLSCRASQGIRGNLDWYQQKPGGTIKLLIYSTSNLNSGVPSRFSGSGSGSDYSLTISSLDSEDFADYYCLQRNAYPYTFGGGTKLEIK
# Pos/Exam (Adenoid): 3/3
Summary Reactivity (Adenoid): 433
# Pos/Exam (Adenoid: Epithelium): 0/3
Summary Reactivity (Adenoid: Epithelium): 0
# Pos/Exam [1]: 0/3
Summary Reactivity [1]: 0
# Pos/Exam [2]: 2/2
Summary Reactivity [2]: 400
# Pos/Exam (Adipose Tissue: Fat Cells): 0/3
Summary Reactivity (Adipose Tissue: Fat Cells): 0
# Pos/Exam (Adrenal: Medulla): 0/3
Summary Reactivity (Adrenal: Medulla): 0
# Pos/Exam [3]: 0/3
Summary Reactivity [3]: 0
# Pos/Exam [4]: 0/3
Summary Reactivity [4]: 0
# Pos/Exam [5]: 0/3
Summary Reactivity [5]: 0
# Pos/Exam (Aorta: Elastic Interna): 0/3
Summary Reactivity (Aorta: Elastic Interna): 0
# Pos/Exam (Aorta: Endothelium): 0/3
Summary Reactivity (Aorta: Endothelium): 0
# Pos/Exam (Aorta: Tunica Adventitia): 0/3
Summary Reactivity (Aorta: Tunica Adventitia): 0
# Pos/Exam (Aorta: Tunica Media): 0/3
Summary Reactivity (Aorta: Tunica Media): 0
# Pos/Exam [6]: 0/3
Summary Reactivity [6]: 0
# Pos/Exam (Brain-Cerebellum: Microglia): 0/3
Summary Reactivity (Brain-Cerebellum: Microglia): 0
# Pos/Exam (Brain-Cerebellum: Neurons): 0/3
Summary Reactivity (Brain-Cerebellum: Neurons): 0
# Pos/Exam [7]: 0/3
Summary Reactivity [7]: 0
# Pos/Exam [8]: 0/3
Summary Reactivity [8]: 0
# Pos/Exam (Brain-Cerebrum: Microglia): 0/3
Summary Reactivity (Brain-Cerebrum: Microglia): 0
# Pos/Exam (Brain-Cerebrum: Neurons): 0/3
Summary Reactivity (Brain-Cerebrum: Neurons): 0
# Pos/Exam [9]: 0/3
Summary Reactivity [9]: 0
# Pos/Exam (Brain-Midbrain: Microglia): 0/3
Summary Reactivity (Brain-Midbrain: Microglia): 0
# Pos/Exam (Brain-Midbrain: Neurons): 0/3
Summary Reactivity (Brain-Midbrain: Neurons): 0
# Pos/Exam (Colon: Mucosal Epithelium): 3/3
Summary Reactivity (Colon: Mucosal Epithelium): 500
# Pos/Exam (Colon: Muscularis Externa): 0/3
Summary Reactivity (Colon: Muscularis Externa): 0
# Pos/Exam (Colon: Muscularis Mucosa): 0/3
Summary Reactivity (Colon: Muscularis Mucosa): 0
# Pos/Exam (Colon: Nerve Ganglia): 0/3
Summary Reactivity (Colon: Nerve Ganglia): 0
# Pos/Exam (Colon: Serosa): 0/1
Summary Reactivity (Colon: Serosa): 0
# Pos/Exam (Duodenum: Mucosal Epithelium): 3/3
Summary Reactivity (Duodenum: Mucosal Epithelium): 500
# Pos/Exam (Duodenum: Muscularis Mucosa): 0/3
Summary Reactivity (Duodenum: Muscularis Mucosa): 0
# Pos/Exam (Epididymis: Epithelium): 3/3
Summary Reactivity (Epididymis: Epithelium): 419
# Pos/Exam (Epididymis: Smooth Muscle): 0/3
Summary Reactivity (Epididymis: Smooth Muscle): 0
# Pos/Exam (Epididymis: Spermatozoa): 0/1
Summary Reactivity (Epididymis: Spermatozoa): 0
# Pos/Exam (Esophagus: Epithelium): 3/3
Summary Reactivity (Esophagus: Epithelium): 86
# Pos/Exam (Esophagus: Mucosal Gland): 2/2
Summary Reactivity (Esophagus: Mucosal Gland): 450
# Pos/Exam (Esophagus: Smooth Muscle): 0/3
Summary Reactivity (Esophagus: Smooth Muscle): 0
# Pos/Exam [10]: 0/3
Summary Reactivity [10]: 467
# Pos/Exam (Gall Bladder: Smooth Muscle): 0/3
Summary Reactivity (Gall Bladder: Smooth Muscle): 0
# Pos/Exam (Heart: Myocardium): 0/3
Summary Reactivity (Heart: Myocardium): 0
# Pos/Exam (Heart: Serosa): 0/1
Summary Reactivity (Heart: Serosa): 0
# Pos/Exam (Ileum: Lymph Node): 0/2
Summary Reactivity (Ileum: Lymph Node): 0
# Pos/Exam (Ileum: Mucosal Epithelium): 0/2
Summary Reactivity (Ileum: Mucosal Epithelium): 0
# Pos/Exam (Ileum: Muscularis Externa): 0/1
Summary Reactivity (Ileum: Muscularis Externa): 0
# Pos/Exam (Ileum: Muscularis Mucosa): 0/2
Summary Reactivity (Ileum: Muscularis Mucosa): 0
# Pos/Exam (Ileum: Nerve Ganglia): 0/1
Summary Reactivity (Ileum: Nerve Ganglia): 0
# Pos/Exam (Ileum: Serosa): 0/1
Summary Reactivity (Ileum: Serosa): 0
# Pos/Exam (Jejunum: Lymph Node): 0/1
Summary Reactivity (Jejunum: Lymph Node): 0
# Pos/Exam (Jejunum: Mucosal Epithelium): 2/2
Summary Reactivity (Jejunum: Mucosal Epithelium): 400
# Pos/Exam (Jejunum: Muscularis Externa): 0/2
Summary Reactivity (Jejunum: Muscularis Externa): 0
# Pos/Exam (Jejunum: Muscularis Mucosa): 0/2
Summary Reactivity (Jejunum: Muscularis Mucosa): 0
# Pos/Exam (Jejunum: Nerve Ganglia): 0/2
Summary Reactivity (Jejunum: Nerve Ganglia): 0
# Pos/Exam (Jejunum: Serosa): 0/1
Summary Reactivity (Jejunum: Serosa): 0
# Pos/Exam (Kidney: Collecting Tubules): 2/3
Summary Reactivity (Kidney: Collecting Tubules): 160
# Pos/Exam [11]: 3/3
Summary Reactivity [11]: 500
# Pos/Exam (Kidney: Glomerular Eipithelium): 0/3
Summary Reactivity (Kidney: Glomerular Eipithelium): 0
# Pos/Exam (Kidney: Mesangial): 0/3
Summary Reactivity (Kidney: Mesangial): 0
# Pos/Exam [12]: 3/3
Summary Reactivity [12]: 500
# Pos/Exam (Liver: Bile Duct): 3/3
Summary Reactivity (Liver: Bile Duct): 500
# Pos/Exam [13]: 1/3
Summary Reactivity [13]: 4
# Pos/Exam (Liver: Kupffer Cells): 0/3
Summary Reactivity (Liver: Kupffer Cells): 0
# Pos/Exam (Liver: Periportal Hepatocyte): 1/3
Summary Reactivity (Liver: Periportal Hepatocyte): 40
# Pos/Exam (Lung: Alveolar Macrophage): 0/3
Summary Reactivity (Lung: Alveolar Macrophage): 0
# Pos/Exam (Lung: Bronchial Epithelium): 0/2
Summary Reactivity (Lung: Bronchial Epithelium): 0
# Pos/Exam (Lung: Bronchial Smooth Muscle): 0/2
Summary Reactivity (Lung: Bronchial Smooth Muscle): 0
# Pos/Exam (Lung: Pneumocyte Type I): 3/3
Summary Reactivity (Lung: Pneumocyte Type I): 354
# Pos/Exam (Lung: Pneumocyte Type II): 3/3
Summary Reactivity (Lung: Pneumocyte Type II): 387
# Pos/Exam [14]: 0/3
Summary Reactivity [14]: 0
# Pos/Exam [15]: 0/3
Summary Reactivity [15]: 0
# Pos/Exam [16]: 3/3
Summary Reactivity [16]: 500
# Pos/Exam (Mammary Gland: Duct Epithelium): 3/3
Summary Reactivity (Mammary Gland: Duct Epithelium): 500
# Pos/Exam (Mammary Gland: Myoepithelium): 0/3
Summary Reactivity (Mammary Gland: Myoepithelium): 0
# Pos/Exam (Muscle Skeletal: Muscle Fiber): 0/3
Summary Reactivity (Muscle Skeletal: Muscle Fiber): 0
# Pos/Exam (Nerve: Axon, Myelinated): 0/2
Summary Reactivity (Nerve: Axon, Myelinated): 0
# Pos/Exam (Nerve: Endoneurium): 0/2
